IntAct's records for PubMed 21642969

B1: Transcription intermediary factor 1-beta (Homo sapiens), Q13263 (parent)
chain: MAASAAAASAAAASAASGSPGPGEGSAGGEKRSTAPSAAASASASAAASSPAGGGAEALELLEHCGVCRERLRPEREPRLLPCLHSACSACLGPAAPAAANSSGDGGAAGDGTVVDCPVCKQQCFSKDIVENYFMRDSGSKAATDAQDANQCCTSCEDNAPATSYCVECSEPLCETCVEAHQRVKYTKDHTVRSTGPAKSRDGERTVYCNVHKHEPLVLFCESCDTLTCRDCQLNAHKDHQYQFLEDAVRNQRKLLASLVKRLGDKHATLQKSTKEVRSSIRQVSDVQKRVQVDVKMAILQIMKELNKRGRVLVNDAQKVTEGQQERLERQHWTMTKIQKHQEHILRFASWALESDNNTALLLSKKLIYFQLHRALKMIVDPVEPHGEMKFQWDLNAWTKSAEAFGKIVAERPGTNSTGPAPMAPPRAPGPLSKQGSGSSQPMEVQEGYGFGSGDDPYSSAEPHVSGVKRSRSGEGEVSGLMRKVPRVSLERLDLDLTADSQPPVFKVFPGSTTEDYNLIVIERGAAAAATGQPGTAPAGTPGAPPLAGMAIVKEEETEAAIGAPPTATEGPETKPVLMALAEGPGAEGPRLASPSGSTSSGLEVVAPEGTSAPGGGPGTLDDSATICRVCQKPGDLVMCNQCEFCFHLDCHLPALQDVPGEEWSCSLCHVLPDLKEEDGSLSLDGADSTGVVAKLSPANQRKCERVLLALFCHEPCRPLHQLATDSTFSLDQPGGTLDLTLIRARLQEKLSPPYSSPQEFAQDVGRMFKQFNKLTEDKADVQSIIGLQRFFETRMNEAFGDTKFSAVLVEPPPMSLPGAGLSSQELSGGPGDGP

Variants of: B1
Settings: with chd3_human CHD3, Q12873
Sequence of chd3_human CHD3, Q12873 (Q12873 whole entry): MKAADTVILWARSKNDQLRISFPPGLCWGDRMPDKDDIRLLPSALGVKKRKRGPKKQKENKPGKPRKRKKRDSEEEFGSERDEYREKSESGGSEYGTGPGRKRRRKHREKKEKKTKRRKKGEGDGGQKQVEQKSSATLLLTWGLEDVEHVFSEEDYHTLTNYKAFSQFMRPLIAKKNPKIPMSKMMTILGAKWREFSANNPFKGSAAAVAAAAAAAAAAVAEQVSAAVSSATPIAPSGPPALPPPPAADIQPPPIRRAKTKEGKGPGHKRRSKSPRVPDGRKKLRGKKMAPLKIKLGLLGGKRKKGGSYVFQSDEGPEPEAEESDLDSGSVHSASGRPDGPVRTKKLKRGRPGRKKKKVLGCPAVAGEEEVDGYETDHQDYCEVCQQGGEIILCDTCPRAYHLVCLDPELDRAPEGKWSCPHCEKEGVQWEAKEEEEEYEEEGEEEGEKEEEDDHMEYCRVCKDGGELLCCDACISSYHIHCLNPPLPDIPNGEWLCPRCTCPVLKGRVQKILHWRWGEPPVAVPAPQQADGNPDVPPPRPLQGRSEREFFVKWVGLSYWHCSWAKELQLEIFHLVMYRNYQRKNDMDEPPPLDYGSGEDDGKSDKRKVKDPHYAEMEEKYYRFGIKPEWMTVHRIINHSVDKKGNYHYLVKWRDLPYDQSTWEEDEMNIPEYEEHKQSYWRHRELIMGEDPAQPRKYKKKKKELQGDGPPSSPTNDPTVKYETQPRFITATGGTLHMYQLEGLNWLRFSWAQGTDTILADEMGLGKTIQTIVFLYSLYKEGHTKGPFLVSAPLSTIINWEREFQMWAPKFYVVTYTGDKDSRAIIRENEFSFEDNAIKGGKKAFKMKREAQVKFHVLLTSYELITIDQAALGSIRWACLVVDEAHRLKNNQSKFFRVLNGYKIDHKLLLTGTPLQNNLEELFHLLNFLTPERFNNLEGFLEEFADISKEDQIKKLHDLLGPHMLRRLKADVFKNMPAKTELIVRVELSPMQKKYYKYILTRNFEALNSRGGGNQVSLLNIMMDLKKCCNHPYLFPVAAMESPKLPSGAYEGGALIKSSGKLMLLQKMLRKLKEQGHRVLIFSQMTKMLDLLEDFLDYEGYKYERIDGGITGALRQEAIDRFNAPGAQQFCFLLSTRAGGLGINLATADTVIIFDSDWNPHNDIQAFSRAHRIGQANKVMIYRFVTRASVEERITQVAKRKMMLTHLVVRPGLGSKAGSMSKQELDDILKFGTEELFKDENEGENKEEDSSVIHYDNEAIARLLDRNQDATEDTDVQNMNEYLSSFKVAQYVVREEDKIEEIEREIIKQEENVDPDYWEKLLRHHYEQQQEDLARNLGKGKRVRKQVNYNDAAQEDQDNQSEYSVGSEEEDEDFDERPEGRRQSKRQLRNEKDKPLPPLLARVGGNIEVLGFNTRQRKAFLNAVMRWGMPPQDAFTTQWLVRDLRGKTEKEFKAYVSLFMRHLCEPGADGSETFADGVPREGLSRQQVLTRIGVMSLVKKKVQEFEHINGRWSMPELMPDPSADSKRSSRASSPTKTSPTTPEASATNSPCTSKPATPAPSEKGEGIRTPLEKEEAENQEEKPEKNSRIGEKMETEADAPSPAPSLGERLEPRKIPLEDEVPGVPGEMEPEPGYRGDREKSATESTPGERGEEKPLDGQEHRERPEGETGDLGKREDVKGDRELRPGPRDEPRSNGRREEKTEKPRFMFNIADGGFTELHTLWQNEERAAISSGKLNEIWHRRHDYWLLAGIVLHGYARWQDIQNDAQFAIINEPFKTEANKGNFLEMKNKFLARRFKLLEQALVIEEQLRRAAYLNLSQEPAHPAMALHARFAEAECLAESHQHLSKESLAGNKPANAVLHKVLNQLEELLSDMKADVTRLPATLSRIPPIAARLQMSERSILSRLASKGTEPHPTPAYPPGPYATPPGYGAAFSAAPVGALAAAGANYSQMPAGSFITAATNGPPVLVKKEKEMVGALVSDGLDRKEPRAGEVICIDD

Variant | effect of a mutation on the interaction
S824D | decreasing interaction
K554R;K779R;K804R | disrupting interaction
